FireProtDB (doi:10.1002/pro.100)

B1: Prolactin, P01236 (parent)
chain: MNIKGSPWKGSLLLLLVSNLLLCQSVAPLPICPGGAARCQVTLRDLFDRAVVLSHYIHNLSSEMFSEFDKRYTHGRGFITKAINSCHTSSLATPEDKEQAQQMNQKDFLSLIVSILRSWNEPLYHLVTEVRGMQEAPEAILSKAVEIEEQTKRLLEGMELIVSQVHPETKENEIYPVWSGLPSLQMADEESRLSAYYNLLHCLRRDSHKIDNYLKLLKCRIIHNNNC

Variants of: B1
Settings: Homo sapiens, 25 °C, Urea, Fluorescence, Potassium phosphate 25 mM, NaCl 25 mM, reversible: Yes, structure 2Q98, whole UniProt chain shown

## MNIKGSPWKGSLLLLLVSNLLLCQSVAPLPICPGGAARCQVTLRDLFDRAVVLSHYIANLSSEMFSEFDKRYTHGRGFITKAINSCHTSSLATPEDKEQAQQMNQKDFLSLIVSILRSWNEPLYHLVTEVRGMQEAPEAILSKAVEIEEQTKRLLEGMELIVSQVHPETKENEIYPVWSGLPSLQMADEESRLSAYYNLLHCLRRDSHKIDNYLKLLKCRIIHNNNC [H58A]
pH 5.8
  ddG of mutation (higher = less stable): -3.1 kcal/mol
  denaturant m value: 1.2 kcal/mol/M
  denaturant midpoint (higher = more stable): 6.18 M
  unfolding free energy: 7.4 kcal/mol
pH 7.8
  ddG of mutation (higher = less stable): -2.05 kcal/mol
  denaturant m value: 1.51 kcal/mol/M
  denaturant midpoint (higher = more stable): 6.79 M
  unfolding free energy: 10.2 kcal/mol

## MNIKGSPWKGSLLLLLVSNLLLCQSVAPLPICPGGAARCQVTLRDLFDRAVVLSAYIANLSSEMFSEFDKRYTHGRGFITKAINSCHTSSLATPEDKEQAQQMNQKDFLSLIVSILRSWNEPLYHLVTEVRGMQEAPEAILSKAVEIEEQTKRLLEGMELIVSQVHPETKENEIYPVWSGLPSLQMADEESRLSAYYNLLHCLRRDSAKIDNYLKLLKCRIIHNNNC [H55A H58A H208A]
pH 5.8
  ddG of mutation (higher = less stable): -3.41 kcal/mol
  denaturant m value: 1.16 kcal/mol/M
  denaturant midpoint (higher = more stable): 6.67 M
  unfolding free energy: 7.71 kcal/mol
pH 7.8
  ddG of mutation (higher = less stable): -3.11 kcal/mol
  denaturant m value: 1.59 kcal/mol/M
  denaturant midpoint (higher = more stable): 7.1 M
  unfolding free energy: 11.3 kcal/mol

## MNIKGSPWKGSLLLLLVSNLLLCQSVAPLPICPGGAARCQVTLRDLFDRAVVLSHYIHNLSSEMFSEFDKRYTHGRGFITKAINSCHTSSLATPEDKEQAQQMNQKDFLSLIVSILRSWNEPLYHLVTEVRGMQEAPEAILSKAVEIEEQTKRLLEGMELIVSQVAPETKENEIYPVWSGLPSLQMADEESRLSAYYNLLHCLRRDSHKIDNYLKLLKCRIIHNNNC [H166A]
pH 5.8
  ddG of mutation (higher = less stable): -2.04 kcal/mol
  denaturant m value: 1.08 kcal/mol/M
  denaturant midpoint (higher = more stable): 5.87 M
  unfolding free energy: 6.34 kcal/mol
pH 7.8
  ddG of mutation (higher = less stable): -0.58 kcal/mol
  denaturant m value: 1.38 kcal/mol/M
  denaturant midpoint (higher = more stable): 6.38 M
  unfolding free energy: 8.78 kcal/mol

## MNIKGSPWKGSLLLLLVSNLLLCQSVAPLPICPGGAARCQVTLRDLFDRAVVLSHYIHNLSSEMFSEFDKRYTHGRGFITKAINSCATSSLATPEDKEQAQQMNQKDFLSLIVSILRSWNEPLYHLVTEVRGMQEAPEAILSKAVEIEEQTKRLLEGMELIVSQVHPETKENEIYPVWSGLPSLQMADEESRLSAYYNLLHCLRRDSHKIDNYLKLLKCRIIHNNNC [H87A]
pH 5.8
  ddG of mutation (higher = less stable): -2.26 kcal/mol
  denaturant m value: 1.13 kcal/mol/M
  denaturant midpoint (higher = more stable): 5.81 M
  unfolding free energy: 6.56 kcal/mol
pH 7.8
  ddG of mutation (higher = less stable): 0.02 kcal/mol
  denaturant m value: 1.35 kcal/mol/M
  denaturant midpoint (higher = more stable): 6.08 M
  unfolding free energy: 8.18 kcal/mol

## MNIKGSPWKGSLLLLLVSNLLLCQSVAPLPICPGGAARCQVTLRDLFDRAVVLSHYIHNLSSEMFSEFDKRYTAGRGFITKAINSCHTSSLATPEDKEQAQQMNQKDFLSLIVSILRSWNEPLYHLVTEVRGMQEAPEAILSKAVEIEEQTKRLLEGMELIVSQVHPETKENEIYPVWSGLPSLQMADEESRLSAYYNLLHCLRRDSHKIDNYLKLLKCRIIHNNNC [H74A]
pH 5.8
  ddG of mutation (higher = less stable): 0.11 kcal/mol
  denaturant m value: 0.81 kcal/mol/M
  denaturant midpoint (higher = more stable): 5.14 M
  unfolding free energy: 4.19 kcal/mol
pH 7.8
  ddG of mutation (higher = less stable): -1.55 kcal/mol
  denaturant m value: 1.58 kcal/mol/M
  denaturant midpoint (higher = more stable): 6.19 M
  unfolding free energy: 9.75 kcal/mol

## MNIKGSPWKGSLLLLLVSNLLLCQSVAPLPICPGGAARCQVTLRDLFDRAVVLSHYIANLSSEMFSEFDKRYTHGRGFITKAINSCHTSSLATPEDKEQAQQMNQKDFLSLIVSILRSWNEPLYHLVTEVRGMQEAPEAILSKAVEIEEQTKRLLEGMELIVSQVHPETKENEIYPVWSGLPSLQMADEESRLSAYYNLLACLRRDSAKIDNYLKLLKCRIIHNNNC [H58A H201A H208A]
pH 5.8
  ddG of mutation (higher = less stable): -3.98 kcal/mol
  denaturant m value: 1.22 kcal/mol/M
  denaturant midpoint (higher = more stable): 6.81 M
  unfolding free energy: 8.28 kcal/mol
pH 7.8
  ddG of mutation (higher = less stable): -0.87 kcal/mol
  denaturant m value: 1.31 kcal/mol/M
  denaturant midpoint (higher = more stable): 6.94 M
  unfolding free energy: 9.07 kcal/mol

## MNIKGSPWKGSLLLLLVSNLLLCQSVAPLPICPGGAARCQVTLRDLFDRAVVLSHYIHNLSSEMFSEFDKRYTHGRGFITKAINSCHTSSLATPEDKEQAQQMNQKDFLSLIVSILRSWNEPLYHLVTEVRGMQEAPEAILSKAVEIEEQTKRLLEGMELIVSQVHPETKENEIYPVWSGLPSLQMADEESRLSAYYNLLACLRRDSAKIDNYLKLLKCRIIHNNNC [H201A H208A]
pH 5.8
  ddG of mutation (higher = less stable): -1.71 kcal/mol
  denaturant m value: 0.93 kcal/mol/M
  denaturant midpoint (higher = more stable): 6.49 M
  unfolding free energy: 6.01 kcal/mol
pH 7.8
  ddG of mutation (higher = less stable): 0.41 kcal/mol
  denaturant m value: 1.17 kcal/mol/M
  denaturant midpoint (higher = more stable): 6.66 M
  unfolding free energy: 7.79 kcal/mol

## MNIKGSPWKGSLLLLLVSNLLLCQSVAPLPICPGGAARCQVTLRDLFDRAVVLSHYIANLSSEMFSEFDKRYTHGRGFITKAINSCHTSSLATPEDKEQAQQMNQKDFLSLIVSILRSWNEPLYHLVTEVRGMQEAPEAILSKAVEIEEQTKRLLEGMELIVSQVHPETKENEIYPVWSGLPSLQMADEESRLSAYYNLLHCLRRDSAKIDNYLKLLKCRIIHNNNC [H58A H208A]
pH 5.8
  ddG of mutation (higher = less stable): -3.06 kcal/mol
  denaturant m value: 1.17 kcal/mol/M
  denaturant midpoint (higher = more stable): 6.31 M
  unfolding free energy: 7.36 kcal/mol

## MNIKGSPWKGSLLLLLVSNLLLCQSVAPLPICPGGAARCQVTLRDLFDRAVVLSAYIHNLSSEMFSEFDKRYTHGRGFITKAINSCHTSSLATPEDKEQAQQMNQKDFLSLIVSILRSWNEPLYHLVTEVRGMQEAPEAILSKAVEIEEQTKRLLEGMELIVSQVHPETKENEIYPVWSGLPSLQMADEESRLSAYYNLLHCLRRDSHKIDNYLKLLKCRIIHNNNC [H55A]
pH 5.8
  ddG of mutation (higher = less stable): -0.09 kcal/mol
  denaturant m value: 0.77 kcal/mol/M
  denaturant midpoint (higher = more stable): 5.71 M
  unfolding free energy: 4.39 kcal/mol

## MNIKGSPWKGSLLLLLVSNLLLCQSVAPLPICPGGAARCQVTLRDLFDRAVVLSHYIANLSSEMFSEFDKRYTHGRGFITKAINSCHTSSLATPEDKEQAQQMNQKDFLSLIVSILRSWNEPLYHLVTEVRGMQEAPEAILSKAVEIEEQTKRLLEGMELIVSQVHPETKENEIYPVWSGLPSLQMADEESRLSAYYNLLACLRRDSHKIDNYLKLLKCRIIHNNNC [H58A H201A]
pH 5.8
  ddG of mutation (higher = less stable): -3.7 kcal/mol
  denaturant m value: 1.19 kcal/mol/M
  denaturant midpoint (higher = more stable): 6.7 M
  unfolding free energy: 8 kcal/mol
pH 7.8
  ddG of mutation (higher = less stable): -1.53 kcal/mol
  denaturant m value: 1.49 kcal/mol/M
  denaturant midpoint (higher = more stable): 6.53 M
  unfolding free energy: 9.73 kcal/mol

## MNIKGSPWKGSLLLLLVSNLLLCQSVAPLPICPGGAARCQVTLRDLFDRAVVLSAYIHNLSSEMFSEFDKRYTHGRGFITKAINSCHTSSLATPEDKEQAQQMNQKDFLSLIVSILRSWNEPLYHLVTEVRGMQEAPEAILSKAVEIEEQTKRLLEGMELIVSQVHPETKENEIYPVWSGLPSLQMADEESRLSAYYNLLHCLRRDSAKIDNYLKLLKCRIIHNNNC [H55A H208A]
pH 5.8
  ddG of mutation (higher = less stable): -2.06 kcal/mol
  denaturant m value: 1.05 kcal/mol/M
  denaturant midpoint (higher = more stable): 6.08 M
  unfolding free energy: 6.36 kcal/mol
pH 7.8
  ddG of mutation (higher = less stable): -2.57 kcal/mol
  denaturant m value: 1.62 kcal/mol/M
  denaturant midpoint (higher = more stable): 6.64 M
  unfolding free energy: 10.8 kcal/mol

## MNIKGSPWKGSLLLLLVSNLLLCQSVAPLPICPGGAARCQVTLRDLFDRAVVLSHYIHNLSSEMFSEFDKRYTHGRGFITKAINSCHTSSLATPEDKEQAQQMNQKDFLSLIVSILRSWNEPLYHLVTEVRGMQEAPEAILSKAVEIEEQTKRLLEGMELIVSQVHPETKENEIYPVWSGLPSLQMADEESRLSAYYNLLACLRRDSHKIDNYLKLLKCRIIHNNNC [H201A]
pH 5.8
  ddG of mutation (higher = less stable): -0.24 kcal/mol
  denaturant m value: 0.76 kcal/mol/M
  denaturant midpoint (higher = more stable): 5.98 M
  unfolding free energy: 4.54 kcal/mol
pH 7.8
  ddG of mutation (higher = less stable): 0.35 kcal/mol
  denaturant m value: 1.26 kcal/mol/M
  denaturant midpoint (higher = more stable): 6.22 M
  unfolding free energy: 7.85 kcal/mol

## MNIKGSPWKGSLLLLLVSNLLLCQSVAPLPICPGGAARCQVTLRDLFDRAVVLSHYIHNLSSEMFSEFDKRYTHGRGFITKAINSCHTSSLATPEDKEQAQQMNQKDFLSLIVSILRSWNEPLYALVTEVRGMQEAPEAILSKAVEIEEQTKRLLEGMELIVSQVHPETKENEIYPVWSGLPSLQMADEESRLSAYYNLLHCLRRDSHKIDNYLKLLKCRIIHNNNC [H125A]
pH 5.8
  ddG of mutation (higher = less stable): -1.07 kcal/mol
  denaturant m value: 0.94 kcal/mol/M
  denaturant midpoint (higher = more stable): 5.72 M
  unfolding free energy: 5.37 kcal/mol
pH 7.8
  ddG of mutation (higher = less stable): -0.33 kcal/mol
  denaturant m value: 1.4 kcal/mol/M
  denaturant midpoint (higher = more stable): 6.1 M
  unfolding free energy: 8.53 kcal/mol
